Assay [1] concerns the target human C1q (Quidel, San Diego, CA) (human) (UniProt P02745). The assay is described as follows: C1q binding ELISA (antibody coated, 2 µg/ml C1q added). In general terms: An ELISA detects its analyte on a solid surface through an enzyme-linked reagent.
Assay [2] has the same target. The description is as above. The source holds these as a separate data set.
Assay [3] shares this target. Nature of the assay: cell-based or functional assay.
The target in assay [4] is CD20 antigen on WIL2-S cells (UniProt P11836). The assay is described as follows: flow cytometry on WIL2-S cells expressing CD20.
The target of assay [5] is FcγRIIIa α subunit ECD-6His-GST fusion protein (UniProt P08637). Nature of the assay: ELISA on coated receptor ECD-6His-GST, E27:chimeric IgE:VEGF immune complex.
Assay [6] concerns the target FcγRI α subunit-GST fusion (UniProt P12314). The assay is described as follows: ELISA on coated FcγRI α subunit-GST, monomeric IgG at 10 µg/ml.
The target in assay [7] is human C1q (Quidel, San Diego, CA) (human) (UniProt P02745). Nature of the assay: C1q binding ELISA (antibody coated up to 100 µg/ml, 2 µg/ml C1q added).
The target in assay [8] is FcγRIIb α subunit ECD-6His-GST fusion protein (UniProt P31994). Nature of the assay: ELISA on coated receptor ECD-6His-GST, E27:chimeric IgE:VEGF immune complex.
Assay [9] has as its target FcγRIIa α subunit ECD-6His-GST fusion protein (UniProt P12318). The assay is described as above.

Where two headings read alike, the source gives them in different places.

In general, EC50 refers to the concentration needed to bring the measured effect to its halfway point.

FcγRI α subunit-GST fusion, sequence (P12314 16-292): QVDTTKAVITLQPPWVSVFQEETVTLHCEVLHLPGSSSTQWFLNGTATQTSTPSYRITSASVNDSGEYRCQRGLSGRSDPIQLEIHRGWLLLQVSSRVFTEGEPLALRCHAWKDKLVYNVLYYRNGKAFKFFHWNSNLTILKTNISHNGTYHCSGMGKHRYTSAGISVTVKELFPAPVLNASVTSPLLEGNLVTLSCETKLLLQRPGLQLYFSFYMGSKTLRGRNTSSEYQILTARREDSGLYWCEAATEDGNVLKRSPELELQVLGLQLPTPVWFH
FcγRIIa α subunit ECD-6His-GST fusion protein, sequence (P12318 34-217): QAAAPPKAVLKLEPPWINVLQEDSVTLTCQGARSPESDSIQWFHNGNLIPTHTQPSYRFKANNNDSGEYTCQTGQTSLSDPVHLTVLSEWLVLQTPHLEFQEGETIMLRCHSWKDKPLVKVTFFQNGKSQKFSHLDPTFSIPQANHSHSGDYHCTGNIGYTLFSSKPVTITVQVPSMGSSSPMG
human C1q (Quidel, San Diego, CA) (human), sequence (P02745 23-245 limits assumed, chain 1 of 3): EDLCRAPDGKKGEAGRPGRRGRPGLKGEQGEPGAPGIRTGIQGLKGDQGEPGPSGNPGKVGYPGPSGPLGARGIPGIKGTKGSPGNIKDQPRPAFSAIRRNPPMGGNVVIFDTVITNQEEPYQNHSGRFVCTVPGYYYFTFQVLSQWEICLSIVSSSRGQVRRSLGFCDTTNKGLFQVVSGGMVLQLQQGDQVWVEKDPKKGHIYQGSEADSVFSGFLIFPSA
human C1q (Quidel, San Diego, CA) (human), sequence (P02746 28-253 limits assumed, chain 2 of 3, further chain): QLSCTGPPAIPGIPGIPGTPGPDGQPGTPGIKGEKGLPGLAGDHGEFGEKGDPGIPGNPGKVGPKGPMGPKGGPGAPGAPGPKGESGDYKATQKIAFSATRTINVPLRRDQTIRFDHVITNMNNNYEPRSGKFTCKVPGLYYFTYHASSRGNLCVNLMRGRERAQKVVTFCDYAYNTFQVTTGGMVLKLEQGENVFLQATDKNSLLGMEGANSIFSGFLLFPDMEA
human C1q (Quidel, San Diego, CA) (human), sequence (P02747 29-245 limits assumed, chain 3 of 3, further chain): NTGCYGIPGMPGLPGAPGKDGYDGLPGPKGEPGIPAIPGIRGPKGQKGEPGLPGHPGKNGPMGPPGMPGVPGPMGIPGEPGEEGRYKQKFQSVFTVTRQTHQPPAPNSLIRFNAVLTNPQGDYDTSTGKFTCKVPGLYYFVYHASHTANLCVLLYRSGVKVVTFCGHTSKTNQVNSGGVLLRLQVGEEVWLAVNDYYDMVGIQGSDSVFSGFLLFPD
FcγRIIb α subunit ECD-6His-GST fusion protein, sequence (P31994 43-217): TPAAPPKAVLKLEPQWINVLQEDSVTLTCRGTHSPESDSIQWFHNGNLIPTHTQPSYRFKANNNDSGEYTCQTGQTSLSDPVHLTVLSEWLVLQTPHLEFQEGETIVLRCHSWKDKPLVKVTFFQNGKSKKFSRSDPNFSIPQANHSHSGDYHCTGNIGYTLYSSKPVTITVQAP
CD20 antigen on WIL2-S cells, sequence (P11836 whole entry, the tested form may be a part): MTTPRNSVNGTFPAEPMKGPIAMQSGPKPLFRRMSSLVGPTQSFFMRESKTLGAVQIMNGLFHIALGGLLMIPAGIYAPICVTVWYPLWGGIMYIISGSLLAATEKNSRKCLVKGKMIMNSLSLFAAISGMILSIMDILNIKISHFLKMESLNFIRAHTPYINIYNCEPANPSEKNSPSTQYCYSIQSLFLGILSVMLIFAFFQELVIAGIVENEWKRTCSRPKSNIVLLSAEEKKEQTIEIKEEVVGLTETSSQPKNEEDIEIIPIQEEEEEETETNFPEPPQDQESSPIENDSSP
FcγRIIIa α subunit ECD-6His-GST fusion protein, sequence (P08637 17-208): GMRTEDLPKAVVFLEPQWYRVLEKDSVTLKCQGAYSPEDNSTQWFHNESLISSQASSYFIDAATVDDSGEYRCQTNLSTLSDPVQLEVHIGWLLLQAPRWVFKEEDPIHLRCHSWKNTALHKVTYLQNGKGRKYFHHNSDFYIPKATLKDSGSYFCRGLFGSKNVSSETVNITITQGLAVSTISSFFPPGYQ

In assay [1], C2B8 mutant K326W (antibody) showed an EC50 of 0.47 µg/mL and a fold increase in binding to C1q compared to wild type of 5 fold. In assay [2], this substance returned a fold increase in binding to C1q compared to wild type of 2 fold. Turning to C2B8 mutant K334A (antibody), the EC50 in [1] is 1.07 µg/mL. Still for that read-out and setting: next, C2B8 mutant E333V (antibody): 1.18 µg/mL; C2B8 mutant K326V (antibody): 1.3 µg/mL.

For the substance C2B8 mutant E333S (antibody), in assay [1], the EC50 was determined as 0.81 µg/mL and the fold increase in binding to C1q compared to wild type is 2 fold. For the substance C2B8 mutant K320A (antibody), in [3], the CDC (% of wild type) came to 108. This substance also displayed a CD20 binding (EC50), percentage of the wild type (% of wild type) in [4] of 102. Regarding C2B8 mutant K326G (antibody), the half-maximal effective concentration (EC50) in assay [1] was found to be 0.95 µg/mL.

Turning to E27 anti-IgE antibody mutant P329A, the binding, percentage of the wild type (% of wild type) in [5] amounted to 85; in assay [6], 104. C2B8 mutant E333Q (antibody) had an EC50 in assay [1] of 1.52 µg/mL. In assay [1], C2B8 mutant K326A (antibody) displayed an EC50 of 1.03 µg/mL and an increase in binding to C1q of 30%.

On to C2B8 mutant P329A (antibody), for which, in [4], the CD20 binding (EC50), percentage of the wild type (% of wild type) worked out at 112. For the substance C2B8 mutant K326M (antibody), the EC50 in assay [1] turned out to be 0.67 µg/mL. The substance further returned a fold increase in binding to C1q compared to wild type in assay [2] of 2 fold. With C2B8 mutant E333A (antibody), in [1], the EC50 came out at 0.98 µg/mL and the increase in binding to C1q came out at 30%. On to “C2B8 double mutant K326W-E333S (antibody)”, for which the CDC compared to wild type C2B8 in [3] is 3 fold. Regarding C2B8 mutant P331A (antibody), the CD20 binding (EC50), percentage of the wild type (% of wild type) in assay [4] stood at 103. The substance also gave a fold lower than wild type C2B8 in binding to C1q in assay [7] of 60 fold.

In [1], “C2B8 double mutant K326A-E333A (antibody)” gave a fold better at binding human C1q than wild type C2B8 of 3 fold. The CDC compared to wild type C2B8 in assay [3] came out at 2 fold.

In assay [1], C2B8 mutant E318A (antibody) came in with a decrease in binding to C1q compared to wild type C2B8 of 30%. The substance further displayed a CDC (% of wild type) in assay [3] of 108. Further, the CD20 binding (EC50), percentage of the wild type (% of wild type) in assay [4] stood at 89.

Substance C2B8 mutant E333G (antibody) showed an EC50 in [1] of 1.14 µg/mL. Consider E27 anti-IgE antibody mutant K322A, for which the binding, percentage of the wild type (% of wild type) was 101 in assay [8] and 109 in [9]. Regarding C2B8 mutant E333D (antibody), the EC50 in assay [1] turned out to be 1.22 µg/mL. E27 anti-IgE antibody mutant E318A: the binding, percentage of the wild type (% of wild type) in [8] amounted to 106; in assay [5], 104; in [9] it was 113; in assay [6], 93. In the same order, the values of E27 anti-IgE antibody mutant P331A are 58, 73, 86 and 74. In assay [1], C2B8 mutant K326E (antibody) had an EC50 of 1.08 µg/mL. In [2], this substance registered a fold increase in binding to C1q compared to wild type of 2 fold.

As for “C2B8 double mutant K326M-E333S (antibody)”, the fold better at binding human C1q than wild type C2B8 in assay [1] turned out to be 3 fold. Besides, the CDC compared to wild type C2B8 in assay [3] stood at 2 fold. Turning to C2B8 mutant K326D (antibody), the EC50 in [1] came out at 0.76 µg/mL. Also, the fold increase in binding to C1q compared to wild type in assay [2] came out at 2 fold. With “C2B8 mutant with A327 of the human IgG1 constant region changed to glycine (antibody)”, the increase in C1q binding in assay [1] was 50%. Take E27 anti-IgE antibody mutant K320A: the values for the binding, percentage of the wild type (% of wild type) in assay [8], in [5] and in [6] were 83, 72 and 102, respectively.

Values taken from EP1746107B1.
